Test results reported in patent publication US20250270320A1 (EUTILEX, published 2025).
Residue numbers refer to the chain shown, from its start. Values belong to the binder of their own block, whether it stands above or below them.

What was measured:
[1] = target: T1, recombinant human PD-1-His protein (ECD) (human, UniProt Q15116 25-170); test: SPR, purified antibody, PD-1 antigen
T1 construct: extracellular domain; Used as ELISA coat and SPR partner; also called rhprotein; antigen; not shown: His tag

[2] = target: T2, human PD-1 expressed on cells (human, UniProt Q15116 25-288); test: flow cytometry on hPD-1/293 cells, 2nd-hIgG-PE detection; Ctl 2nd-hIgG 0.17, cell only 0.03
T2 construct: whole, on cells; also called hPD-1; 293 cell line stably expressing human PD-1
From the text: In addition, each purified humanized antibody was bound to 293 cells expressing human PD-1 and analyzed by flow cytometry.

[3] = target: T1, recombinant human PD-1-His protein (ECD); test: SPR; number in the sensorgram panel without name or unit, taken as KD in M because 5.789e-9 stands for 5.8 nM in FIG 9d
[4] = target: T2, human PD-1 expressed on cells; test: flow cytometry on activated hCD8 T cells from human blood, 2nd-hIgG-PE detection; 2nd-hIgG-PE alone 1.73
[5] = target: T2, human PD-1 expressed on cells; test: flow cytometry on cells overexpressing hPD-1
[6] = target: T1, recombinant human PD-1-His protein (ECD); test: Q-ELISA of purified antibody on recombinant human PD-1-His, drawn table
Procedure: For ELISA, the recombinant human PD-1-His protein was O/N coated on a 96-well ELISA plate at 4° C., and blocked with 5% non-fat skim milk at RT for 1 hr. […]

[7] = target: T2, human PD-1 expressed on cells; test: cell-based or functional assay
[8] = target: T1, recombinant human PD-1-His protein (ECD); test: SPR; number in the sensorgram panel without name or unit, taken as KD in M because 8.999e-9 stands for 9 nM in FIG 9d
[9] = target: T2, human PD-1 expressed on cells; test: cell-based or functional assay; remark: listed apart in the source
[10] = target: T1, recombinant human PD-1-His protein (ECD); test: SPR, purified hybridoma antibody, recombinant human PD-1-His (ECD)

T2 sequence (Q15116 25-288): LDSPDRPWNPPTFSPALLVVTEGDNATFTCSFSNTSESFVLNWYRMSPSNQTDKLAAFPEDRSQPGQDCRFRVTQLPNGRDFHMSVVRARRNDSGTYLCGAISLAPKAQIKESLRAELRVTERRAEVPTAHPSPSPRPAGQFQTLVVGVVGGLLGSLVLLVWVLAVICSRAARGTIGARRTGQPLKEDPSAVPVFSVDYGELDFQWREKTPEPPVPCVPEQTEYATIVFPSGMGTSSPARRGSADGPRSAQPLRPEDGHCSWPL
T1 sequence (Q15116 25-170): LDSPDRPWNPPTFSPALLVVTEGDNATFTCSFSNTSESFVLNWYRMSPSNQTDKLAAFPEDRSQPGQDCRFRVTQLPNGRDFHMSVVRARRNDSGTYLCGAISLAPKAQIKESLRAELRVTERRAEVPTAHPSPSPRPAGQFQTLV

Kd [1]: 13.4 nM | koff [1]: 0.00271 s⁻¹ | kon [1]: 203000 M⁻¹ s⁻¹ | percent of cells in the positive quadrant [2]: 94.7% | Kd [3]: 428 nM | percent of cells in the positive quadrant [4]: 9.77% | percent of cells in the positive quadrant [5]: 95.6% | OD=405, row 1 of 8 (1/2 serial dilution from 500ng) [6]: 3.17 | OD=405, row 2 of 8 (1/2 serial dilution from 500ng) [6]: 3.15 | OD=405, row 3 of 8 (1/2 serial dilution from 500ng) [6]: 3.2 | OD=405, row 4 of 8 (1/2 serial dilution from 500ng) [6]: 3.13 | OD=405, row 5 of 8 (1/2 serial dilution from 500ng) [6]: 2.92 | OD=405, row 6 of 8 (1/2 serial dilution from 500ng) [6]: 2.45 | OD=405, row 7 of 8 (1/2 serial dilution from 500ng) [6]: 1.7 | OD=405, row 8 of 8 (1/2 serial dilution from 500ng) [6]: 1.09
B1: humanized antibody 2B3W (antibody, V domains shown)
VH: EVQLVESGGGLVQPGGSLRLSCAASGFVFSNYDMSWVRQAPGKGLEWVAYITIGGGTTYYPDTVKGRFTISRDNAKNSLYLQMNSLRAEDTAVYYCARWVYDPLYAMDYWGQGTTVTVSS
VL: DIVLTQTPLSLSVTPGQPASISCRASESVDNYGISFMNWFLQKPGQPPQLLIYAASNQGSGVPDRFSGSGSGTDFTLKISRVEAEDVGVYYCQQSKEVPWTFGQGTKVEIK
notes: Humanized antibody made in Expi293 cells

percent of cells in the positive quadrant [4]: 17.4% | percent of cells in the positive quadrant [5]: 96.8%
B2: T14-01 (antibody, V domains shown)
VH: B1 VH
VL: B1 VL with D30T, N31D

percent of cells in the positive quadrant [4]: 9.55% | percent of cells in the positive quadrant [5]: 90.9%
B3: T14-03 (antibody, V domains shown)
VH: B1 VH
VL: B1 VL with D30T, N31D, K96E

percent of cells in the positive quadrant [4]: 11.8% | percent of cells in the positive quadrant [5]: 96%
B4: T14-02 (antibody, V domains shown)
VH: B1 VH
VL: B1 VL with K96E

EC50 (read off the curve); PD-1/PD-L1 Blockade Bioassay, luciferase RAU [7]: ~0.8 µg/mL | percent of cells in the positive quadrant [4]: 17.1% | percent of cells in the positive quadrant [5]: 95%
B5: T14-04 (antibody, V domains shown)
VH: B1 VH with V100R, Y105F
VL: B1 VL

Kd [1]: 29.6 nM | koff [1]: 0.00176 s⁻¹ | kon [1]: 59400 M⁻¹ s⁻¹ | percent of cells in the positive quadrant [2]: 96.1% | Kd [8]: 18.5 nM | percent of cells in the positive quadrant [5]: 96.2% | OD=405, row 1 of 8 (1/2 serial dilution from 500ng) [6]: 3.35 | OD=405, row 2 of 8 (1/2 serial dilution from 500ng) [6]: 3.31 | OD=405, row 3 of 8 (1/2 serial dilution from 500ng) [6]: 3.33 | OD=405, row 4 of 8 (1/2 serial dilution from 500ng) [6]: 3.26 | OD=405, row 5 of 8 (1/2 serial dilution from 500ng) [6]: 2.95 | OD=405, row 6 of 8 (1/2 serial dilution from 500ng) [6]: 2.41 | OD=405, row 7 of 8 (1/2 serial dilution from 500ng) [6]: 1.61 | OD=405, row 8 of 8 (1/2 serial dilution from 500ng) [6]: 0.975
B6: humanized antibody 8D4 (antibody, V domains shown)
VH: QVQLVQSGAEVKKPGASVKVSCKASGYTFTTYWIHWVRQAPGQGLEWIGYINPTTGYTEYNQKFKDRATLTADKSTSTAYMELSSLRSEDTAVYYCARGVRYYFDYWGKGTTVTVSS
VL: DIVMTQSPDSLAVSLGERATINCKSSQSLLDSRTRKNYLAWYQQKPGQPPKLLIYWASTRESGVPDRFSGSGSGTDFTLTISSLQAEDVAVYYCKQSYNLITFGQGTKLEIK
notes: Humanized antibody

Kd [8]: 1800 nM | percent of cells in the positive quadrant [5]: 95.5%
B7: 8D4-T16-02 (antibody, V domains shown)
VH: B6 VH
VL: DIVMTQSPDSLAVSLGERATINCKSSQSLLDSRTRKNYLAWYQQKPGQPPKLLIYWASTRESGVPDRFSGSGSGTDFTLTISSLQAEDVAVYYCQQQYDPPITFGQGTKLEIK
notes: Engineered clone of humanized 8D4; also called T1-02

IC50 (read off the curve); PD-1/PD-L1 blocking reporter assay, fold induction [9]: ~3 µg/mL | Kd [10]: 17.1 nM | koff [10]: 0.00127 s⁻¹ | kon [10]: 74200 M⁻¹ s⁻¹
B8: 2-7C5 hybridoma antibody (antibody, V domains shown)
VH: EVQLVESGGGLVQPVGSLKLSCAASGFTFSSFGMSWVRQTPDKRLELVATIYSNGDYTYYPDSVKGRFTVSRDNAKNTLYLQMSSLKSEDTAMYYCARYYGNYGGYFDYWGQGTTLTVSS
VL: SIVMTQTPKFLLVSAGDRVTITCKASQSVSNDVAWYQQKPGQSPKLLIYYASNRYTGAPDRFTGSGYGTDFTFTISTVQAEDLAVYFCQQDYSSPPTFGGGTKLEIK
notes: Mouse hybridoma antibody

percent of cells in the positive quadrant [4]: 19.3% | percent of cells in the positive quadrant [5]: 96.9%
B9: T15-02 (antibody, V domains shown)
VH: EVQLVESGGGLVKPGGSLRLSCAASGFTFSSFGMSWVRQAPGKGLELVATIYSNGDYTYYPDSVKGRFTVSRDNAKNSLYLQMNSLRAEDTAVYYCARYYGNYGGYFDYWGQGTLVTVSS
VL: AIQMTQSPSSLSASVGDRVTITCKASQSVSNDVAWYQQKPGKAPKLLIYYASNRYTGVPSRFSGSGSGTDFTLTISSLQPEDFATYYCQQDFWYPPTFGGGTKVEIK

percent of cells in the positive quadrant [4]: 12.4% | percent of cells in the positive quadrant [5]: 96.6%
B10: T15-04 (antibody, V domains shown)
VH: B9 VH
VL: B9 VL with S52Y, N53M, F92Y, W93S, Y94S

percent of cells in the positive quadrant [4]: 16.1% | percent of cells in the positive quadrant [5]: 97.5%
B11: T15-05 (antibody, V domains shown)
VH: B9 VH with S53H, N54S, G55R
VL: B9 VL with F92Y, W93S, Y94S

EC50 (read off the curve); PD-1/PD-L1 Blockade Bioassay, luciferase RAU [7]: ~1 µg/mL | percent of cells in the positive quadrant [4]: 10.7% | percent of cells in the positive quadrant [5]: 96.7%
B12: T15-03 (antibody, V domains shown)
VH: B9 VH
VL: B9 VL with S52Y, N53M, Q89H, F92Y, W93S, Y94S

IC50 (read off the curve); PD-1/PD-L1 blocking reporter assay, fold induction [9]: ~3 µg/mL | Kd [10]: 15.9 nM | koff [10]: 0.00106 s⁻¹ | kon [10]: 66700 M⁻¹ s⁻¹
B13: 4-8D4 hybridoma antibody (antibody, V domains shown)
VH: QVQLQQSGAELAKPGASVKMSCKASGYTFTTYWIHWVKQRPGQGLEWIGYINPTTGYTEYNQKFKDKATLTADKSSNTAYMQLSSLTSEDSAVYYCARGVRYYFDYWGKGTTLTVSS
VL: DIVMSQSPSSLAVSAGEKVTMSCKSSQSLLDSRTRKNYLAWYQQKPGQSPKLLIYWASTRESGVPDRFTGSGSGTDFTLTISSVKAEDLAVYLCKQSYNLITFGAGTKLELK
notes: Mouse hybridoma antibody
